In publication PMC5333631 (Scientific Reports, 2017):

Target: 6xHis-TrxA-BoNT/A2-HC (UniProt Q45894 871-1296)
Assay: pull-down
Settings: both partners purified

Chain of 6xHis-TrxA-BoNT/A2-HC (Q45894 871-1296): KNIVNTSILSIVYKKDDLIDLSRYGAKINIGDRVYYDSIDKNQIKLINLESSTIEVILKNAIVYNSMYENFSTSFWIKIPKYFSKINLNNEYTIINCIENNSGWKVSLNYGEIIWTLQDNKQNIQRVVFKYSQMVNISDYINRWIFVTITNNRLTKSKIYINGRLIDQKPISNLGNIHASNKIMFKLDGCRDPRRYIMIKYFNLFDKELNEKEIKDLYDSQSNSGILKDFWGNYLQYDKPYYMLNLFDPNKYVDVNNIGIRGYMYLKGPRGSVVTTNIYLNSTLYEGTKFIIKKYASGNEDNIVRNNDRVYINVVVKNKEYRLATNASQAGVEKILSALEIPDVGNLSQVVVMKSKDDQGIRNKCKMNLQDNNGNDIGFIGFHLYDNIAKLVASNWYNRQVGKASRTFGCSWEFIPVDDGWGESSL

B1: luminal domain (LD) of human SV2C (domain or fragment, UniProt Q496J9 456-574, looked up)
chain: DVIKPLQSDEYALLTRNVERDKYANFTINFTMENQIHTGMEYDNGRFIGVKFKSVTFKDSVFKSCTFEDVTSVNTYFKNCTFIDTVFDNTDFEPYKFIDSEFKNCSFFHNKTGCQITFD
notes: also called SV2C-LD; untagged SV2C-LD; not shown: 6xHis, N-terminal, cleaved
binding result: binds
